Paper PMC6149950, “Designability of Aromatic Interaction Networks at E. coli Bacterioferritin B-Type Channels” (Molecules : A Journal of Synthetic Chemistry and Natural …, 2017)

B1: bacterioferritin from E. coli (BFR) mutant N34W (natural protein)
chain: not shown
notes: bacterioferritin (BFR), E. coli, with N34W; made by site-directed mutagenesis of wild-type BFR in pET32 Ek/LIC
B2: bacterioferritin from E. coli (BFR) double mutant D132W/N34W (natural protein)
chain: not shown
notes: bacterioferritin (BFR), E. coli, with D132W and N34W; made by site-directed mutagenesis of wild-type BFR in pET32 Ek/LIC

Molecular target: the molecule itself
Experiment: SEC; Superdex 200 10/300 GL, 50 mM NaH2PO4, 150 mM NaCl, pH 7.0, 4 °C, 0.5 mL/min; column calibrated with six standard proteins; self-assembly of dimers into the 24-mer cage

Row | Protein | stoichiometry N
1 | B1 | 2
2 | B2 | 2
